From paper PMC5231405 (eLife, 2016)

How the values were obtained:
CheY (Escherichia coli) = CheY (Escherichia coli) (UniProt P0AE67); conditions: cited from earlier work
[1] = target: T1, DesKCSTAB:DesR-REC complex (phosphatase complex) (Bacillus subtilis, UniProt O34757, S150I/S153L/R157I); experiment: X-ray crystallography; conditions: Mg2+, BeF3-; pH 8.5; CA (ATP-binding) domain; 2.79 A
T1 construct: gene desK; DesK cytoplasmic portion with DesR receiver domain; His-tag and TEV site on each, co-expressed in E. coli BL21(DE3); 2:2 complex; with Transcriptional regulatory protein DesR

[2] = target: T2, DesKC_(H188V), mutant of the cytoplasmic portion of DesK trapped in the phosphatase state (B. subtilis, UniProt O34757 154-370, H188V); experiment: ITC; VP-ITC; DesR-REC (350-400 µM) injected into the cell with DesKC variants (25-30 µM); 15°C; 20 mM Tris.HCl pH 8, 0.3 M NaCl, 10 mM MgCl2, 0.5 mM AMP-PNP; duplicate; fitted to a two independent sequential site model; design: unit not given here; conditions: both partners purified
T2 construct: DesK, histidine kinase of Bacillus subtilis; cytoplasmic portion (DesKC); also called DesK_(H188V)
T2 sequence: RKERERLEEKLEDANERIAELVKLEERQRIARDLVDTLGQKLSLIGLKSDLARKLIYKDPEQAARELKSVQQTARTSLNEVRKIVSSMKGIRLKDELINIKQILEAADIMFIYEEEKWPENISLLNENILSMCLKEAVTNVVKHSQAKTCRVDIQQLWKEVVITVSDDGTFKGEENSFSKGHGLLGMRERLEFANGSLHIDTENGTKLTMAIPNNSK

[3] = target: T3, DesKC_(H188E), free protein used in ITC (B. subtilis, UniProt O34757 154-370, H188E); experiment: as above; design: unit not given here; conditions: both partners purified
T3 construct: DesK, histidine kinase of Bacillus subtilis; cytoplasmic portion (DesKC); Kept apart from m2 because it stood alone in the calorimeter cell, whereas m2 was co-expressed and purified with DesR-REC; It may be the same polypeptide as m2
T3 sequence: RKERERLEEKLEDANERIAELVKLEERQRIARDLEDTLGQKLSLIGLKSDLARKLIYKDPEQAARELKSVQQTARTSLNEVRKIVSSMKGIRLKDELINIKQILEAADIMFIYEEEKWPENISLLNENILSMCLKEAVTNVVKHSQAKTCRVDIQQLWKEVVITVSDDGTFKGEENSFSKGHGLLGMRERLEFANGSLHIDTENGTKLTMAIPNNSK

[4] = target: DesKC_(STAB), phosphatase-constitutive mutant of the cytoplasmic portion of the histidine kinase DesK (B. subtilis); experiment: SEC-SAXS; purified DesK-DesR complexes at 10 mg/mL in 50 mM Tris.HCl pH 8.0, 300 mM NaCl, Superdex 75 5/150 GL, beamline SWING; theoretical curves of crystal models fitted with CRYSOL, mixtures with OLIGOMER
[5] = target: T2, DesKC_(H188V), mutant of the …; experiment: ITC; VP-ITC; DesR-REC (350-400 µM) injected into the cell with DesKC variants (25-30 µM); 15°C; 20 mM Tris.HCl pH 8, 0.3 M NaCl, 10 mM MgCl2, 0.5 mM AMP-PNP; duplicate; fitted to a two independent sequential site model; conditions: both partners purified
[6] = target: T3, DesKC_(H188E), free protein used in ITC; experiment: as above; conditions: both partners purified

Chain of CheY (Escherichia coli) (P0AE67 2-129): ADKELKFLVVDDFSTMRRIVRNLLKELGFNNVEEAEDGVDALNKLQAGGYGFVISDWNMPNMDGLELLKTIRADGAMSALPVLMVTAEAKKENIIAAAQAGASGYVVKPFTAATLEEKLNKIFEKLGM
T1 sequence (O34757 150-370 S150I/S153L/R157I, one chain of several): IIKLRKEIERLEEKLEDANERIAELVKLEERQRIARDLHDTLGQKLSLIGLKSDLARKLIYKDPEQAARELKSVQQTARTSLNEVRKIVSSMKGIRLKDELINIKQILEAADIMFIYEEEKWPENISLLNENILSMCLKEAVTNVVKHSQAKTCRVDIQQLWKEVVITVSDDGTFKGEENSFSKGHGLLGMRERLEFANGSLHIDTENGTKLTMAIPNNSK

CheA (from UniProt P07363)
Kd (CheY (Escherichia coli)): 30 nM

Nc1ncnc2c1ncn2[C@@H]1O[C@H](COP(=O)(O)OP(=O)(O)CP(=O)(O)O)[C@@H](O)[C@H]1O [AMP-PCP]
X-ray crystallography [1]: one AMP-PCP (ATP analogue) moiety is bound to each CA domain

B1: DesR-REC, free protein used as ligand in ITC (domain or fragment, B. subtilis)
chain: MISIFIAEDQQMLLGALGSLLNLEDDMEVVGKGTTGQDAVDFVKKRQPDVCIMDIEMPGKTGLEAAEELKDTGCKIIILTTFARPGYFQRAIKAGVKGYLLKDSPSEELANAIRSVMNGKRIYAPELMEDLYSEA
notes: DesR, response regulator of Bacillus subtilis, REC domain; Probably from pQE80-DesR-REC in E. coli TOP10F', the plasmid and host that the methods name for functional assays (Trajtenberg et al., 2014)
dH, first printed row (two sequential sites fit) [2]: 15000
dH, second printed row (two sequential sites fit) [2]: 14000
dH, first printed row (two sequential sites fit) [3]: 22000
dH, second printed row (two sequential sites fit) [3]: 21000
stoichiometry N (RR monomers per HK dimer) [4]: 2
stoichiometry N [5]: 2 RR monomers per HK dimer
stoichiometry N [6]: 1 RR monomers per HK dimer
